This sample holds only a part of the variants without activity. Bounds are passed on as bounds.

First the molecules themselves.
B1: TPR 5TU (parent)
chain: GGAUCUUCUCGAUCUAACAAAAAAGACAAAUCUGCCACAAAGCUUGAGAGCAUCUUCGGAUGCAGAGGCGGCAGCCUUCGGUGGCGCGAUAGCGCCAACGUUCUCAACUAUGACACGCAAAACGCGUGCUCCGUUGAAUGGAGUUUAUCAUG

In the data set the parent is B1. As to the kind of experiment: polymerase ribozyme fitness, log enrichment relative to wild type (log ratio); higher = more active; in vitro selection for triplet polymerase activity. The gist of the method: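 One round of in vitro selection, in triplicate, was applied to PCR-built, transcribed mutant libraries of each subunit of a heterodimeric triplet polymerase ribozyme. The steps were annealing with a biotinylated primer, partner subunit and triplets, incubation frozen at −7 °C, gel excision of extended constructs, streptavidin-bead capture and RT-PCR. Fitness is the logarithm, base 2, of genotype enrichment over wild-type enrichment from inverse-variance-weighted replicate averages of Illumina-sequenced inputs and outputs, keeping genotypes with ≥10 input reads and ≥1 read per output.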
For the variant G59A G86U A119U G140U, the “polymerase ribozyme fitness (log ratio)” value was -3.26.

Consider G58C U135G, for which the “polymerase ribozyme fitness (log ratio)” value was -3.82.

In the case of G59C C95A C99G, the “polymerase ribozyme fitness (log ratio)” value is not above -4.2.

In the case of G58U C72U C87U C99G G141C, the “polymerase ribozyme fitness (log ratio)” value is not above -4.2.

Consider G58C G94C, for which the “polymerase ribozyme fitness (log ratio)” value is -0.872.

For G59C G81C G84C, the “polymerase ribozyme fitness (log ratio)” value is not above -4.2.

With G58U C63G A142C, the “polymerase ribozyme fitness (log ratio)” value is -1.41.

Take G59A C85U: the “polymerase ribozyme fitness (log ratio)” value is -1.79.

Consider G58C G80A C95U U127G C149G, for which the “polymerase ribozyme fitness (log ratio)” value was not above -4.2.

Take G59U A89U C95G: the “polymerase ribozyme fitness (log ratio)” value was -2.27.

On to G58A A66C G74C C131G G136U, for which the “polymerase ribozyme fitness (log ratio)” value was not above -4.2.

With G59U C87U C108U C125A, the “polymerase ribozyme fitness (log ratio)” value was -3.4.

On to G58A C93U, for which the “polymerase ribozyme fitness (log ratio)” value is -2.

As for G59A C93G, the “polymerase ribozyme fitness (log ratio)” value is -3.78.

With G59A C93U, the “polymerase ribozyme fitness (log ratio)” value is -3.33.

As to G59A C93A, the “polymerase ribozyme fitness (log ratio)” value was -3.22.

In the case of G59A U127C, the “polymerase ribozyme fitness (log ratio)” value was -1.23.

Take G58C G83U C85G: the “polymerase ribozyme fitness (log ratio)” value was -3.33.

G59C A142C: the “polymerase ribozyme fitness (log ratio)” value is -0.57.

Regarding G59U A98G, the “polymerase ribozyme fitness (log ratio)” value came to 0.162.

Regarding G58A U102G A121U, the “polymerase ribozyme fitness (log ratio)” value was -2.85.

C57U U151A: the “polymerase ribozyme fitness (log ratio)” value is -4.18.

For the variant G59C G88C A106U C108U, the “polymerase ribozyme fitness (log ratio)” value is not above -4.2.

For the variant G58U C85G, the “polymerase ribozyme fitness (log ratio)” value was -1.61.

Turning to G58C U61A C79A A91G G117A, the “polymerase ribozyme fitness (log ratio)” value was not above -4.2.

Turning to G58A A64G A91C A147U, the “polymerase ribozyme fitness (log ratio)” value was not above -4.2.

In the case of G59A U82C U134A, the “polymerase ribozyme fitness (log ratio)” value was -2.59.

For G58C G83A G84U G92U U135A U139G G141A, the “polymerase ribozyme fitness (log ratio)” value is not above -4.2.

Turning to G58C A122G A150C, the “polymerase ribozyme fitness (log ratio)” value was -3.46.

With G58C G140A, the “polymerase ribozyme fitness (log ratio)” value was -3.51.

For the variant G58U A64G A91G A113U U135A, the “polymerase ribozyme fitness (log ratio)” value is not above -4.2.

Consider G58C C96G, for which the “polymerase ribozyme fitness (log ratio)” value is -1.88.

For the variant G59C U127G U130C, the “polymerase ribozyme fitness (log ratio)” value is not above -4.2.

As for G58A G81A, the “polymerase ribozyme fitness (log ratio)” value is -0.536.

As to G59C G86C G143U, the “polymerase ribozyme fitness (log ratio)” value was not above -4.2.

In the case of G59C C87A U109A G133C, the “polymerase ribozyme fitness (log ratio)” value is not above -4.2.

Take G58C U78G C85G A106U A113G U144C: the “polymerase ribozyme fitness (log ratio)” value was not above -4.2.

On to G58A C85A, for which the “polymerase ribozyme fitness (log ratio)” value is -1.11.

G59C G83A: the “polymerase ribozyme fitness (log ratio)” value is -0.754.

G59C G83U: the “polymerase ribozyme fitness (log ratio)” value turned out to be 0.0759.

In the case of G58C C87A, the “polymerase ribozyme fitness (log ratio)” value is not above -4.2.

Regarding G58C C87U, the “polymerase ribozyme fitness (log ratio)” value was -1.59.

In the case of G59U A60C, the “polymerase ribozyme fitness (log ratio)” value was -2.96.

On to G59C G92A, for which the “polymerase ribozyme fitness (log ratio)” value is -2.89.

As for G59C G133U, the “polymerase ribozyme fitness (log ratio)” value was -3.47.

With G59C C76A C87U A147C, the “polymerase ribozyme fitness (log ratio)” value was -2.29.

Consider G58A U135C, for which the “polymerase ribozyme fitness (log ratio)” value is -1.39.

Turning to G59C A106U, the “polymerase ribozyme fitness (log ratio)” value is -0.917.

For the variant G58A A121C, the “polymerase ribozyme fitness (log ratio)” value stood at 0.557.

Regarding G59A A89U, the “polymerase ribozyme fitness (log ratio)” value is -0.162.

With G58U A142C, the “polymerase ribozyme fitness (log ratio)” value is -0.408.

Regarding G58A U82C A147C C149G, the “polymerase ribozyme fitness (log ratio)” value is not above -4.2.

For G58U C132G, the “polymerase ribozyme fitness (log ratio)” value was -2.82.

Regarding G58A C87U G100C A122C G126A G141U, the “polymerase ribozyme fitness (log ratio)” value is not above -4.2.

As for G59U C69G, the “polymerase ribozyme fitness (log ratio)” value was -1.07.

For G59C C114U G128A A142U, the “polymerase ribozyme fitness (log ratio)” value was -2.5.

For the variant G59C G74A G80C U127G A142G, the “polymerase ribozyme fitness (log ratio)” value was not above -4.2.

For G58C A107C, the “polymerase ribozyme fitness (log ratio)” value was -4.06.

On to G58A G59A A122G U148C, for which the “polymerase ribozyme fitness (log ratio)” value was -2.64.

Regarding G59A C87G G140C, the “polymerase ribozyme fitness (log ratio)” value is not above -4.2.

In the case of G58C G152A, the “polymerase ribozyme fitness (log ratio)” value is -2.01.

G58A G83A G140U: the “polymerase ribozyme fitness (log ratio)” value is -3.64.

As to G59C G81U G83A G124A G141U, the “polymerase ribozyme fitness (log ratio)” value amounted to 0.692.

In the case of G59C A97U U139G, the “polymerase ribozyme fitness (log ratio)” value was -0.518.

With G58C G80C C95U, the “polymerase ribozyme fitness (log ratio)” value was not above -4.2.

Regarding G58U G83A C85U, the “polymerase ribozyme fitness (log ratio)” value is -0.262.

On to G59A C123A, for which the “polymerase ribozyme fitness (log ratio)” value was -0.0504.

On to G58U C69G C87G, for which the “polymerase ribozyme fitness (log ratio)” value was not above -4.2.

G59A A73G U90C C93G C131U U144G: the “polymerase ribozyme fitness (log ratio)” value was not above -4.2.

For the variant G58C G86U C105A, the “polymerase ribozyme fitness (log ratio)” value was -2.89.

Take G58C A115U U127C U144G: the “polymerase ribozyme fitness (log ratio)” value is 0.143.

Take G58C C87U A115G C116G A121U G136U: the “polymerase ribozyme fitness (log ratio)” value is -4.12.

As for G58C G68A G94U C96G, the “polymerase ribozyme fitness (log ratio)” value is not above -4.2.

For the variant G58U C75A U90A, the “polymerase ribozyme fitness (log ratio)” value is not above -4.2.

As for G59C A89U G92C A121G, the “polymerase ribozyme fitness (log ratio)” value is -2.45.

As to G58U C96A G126C, the “polymerase ribozyme fitness (log ratio)” value was 0.641.

Regarding G58C U61C G70C C76G C96U A138G G140U C149G, the “polymerase ribozyme fitness (log ratio)” value was not above -4.2.

Take G58C U82G C132A: the “polymerase ribozyme fitness (log ratio)” value was -2.83.

With G59C G94C A119C U146G, the “polymerase ribozyme fitness (log ratio)” value was -1.61.

As to G58A A60C C63A U82G G88C C95A A113G A147G, the “polymerase ribozyme fitness (log ratio)” value was not above -4.2.

Take G58U A137C: the “polymerase ribozyme fitness (log ratio)” value is -3.03.

Turning to G59C G81A, the “polymerase ribozyme fitness (log ratio)” value is -2.07.

For the variant G59A A119U, the “polymerase ribozyme fitness (log ratio)” value was -0.778.

The values are drawn from the RNAGym collection of RNA variant scans (doi:10.1073/pnas.2313332121).
